Reference: the supplement of paper PMC5998384

Columns and labels:
HeLa Kyoto [1] = assay: solubility change mitosis vs G1/S (difference of NP-40 vs SDS log2 ratios) (log2 ratio difference); higher = more soluble in mitosis
HeLa Kyoto [2] = assay: solubility in G1/S (NP-40 vs SDS abundance) (log2 ratio); higher = more soluble; conditions: cell cycle stage: G1/S
HeLa Kyoto [3] = assay: melting temperature (median over replicates), in situ; higher = more thermally stable
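For melting temperature (median over replicates), in situ in this document: HeLa Kyoto cells synchronized by double thymidine or nocodazole block, proteins quantified by TMT10plex mass spectrometry, three independent biological replicates.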
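For solubility change mitosis vs G1/S (difference of NP-40 vs SDS log2 ratios) in this document: synchronized HeLa Kyoto cells (double thymidine block for G1/S, nocodazole release for mitosis), protein amounts in NP-40 versus SDS lysates quantified by mass spectrometry, three biological replicates.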
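For solubility in G1/S (NP-40 vs SDS abundance) in this document: HeLa Kyoto cells arrested at G1/S by double thymidine block, proteins quantified by TMT10plex mass spectrometry in mild NP-40 versus SDS extracts, three biological replicates.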

Chain of PYM1 (chain, as listed by the source): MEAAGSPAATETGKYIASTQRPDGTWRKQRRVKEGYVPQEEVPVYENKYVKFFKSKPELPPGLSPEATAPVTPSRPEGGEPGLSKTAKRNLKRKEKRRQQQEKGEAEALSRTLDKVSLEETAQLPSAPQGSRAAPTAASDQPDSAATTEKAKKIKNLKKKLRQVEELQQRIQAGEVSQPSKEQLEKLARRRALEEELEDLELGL

Substance	solubility change mitosis (log2) (HeLa Kyoto [1])	solubility in G1/S (log2) (HeLa Kyoto [2])	melting temperature (HeLa Kyoto [3]; cell cycle stage: G1/S) [°C]	melting temperature (HeLa Kyoto [3]; cell cycle stage: mitosis) [°C]
MATGDLKRSLRNLEQVLRLLNYPEEVDCVGLIKGDPAASLPIISYSFTSYSPYVTELIMESNVELIAKNDLRFIDAVYKLLRDQFNYKPILTKKQFIQCGFAEWKIQIVCDILNCVMKKHKELSSLQKIPSQQRKKISSGKSEPPLGNEKISAEAVGVDISGRFMTSGKKKAVVIRHLYNEDNVDISEDTLSPITDVNEAVDVSDLNATEIKMPEVKVPEIKAEQQDVNVNPEITALQTMLAECQENLKKLTSIEKRLDCLEQKMKGKVMVDENTWTNLLSRVTLLETEMLLSKKNDEFIEFNEVSEDYASCSDMDLLNPHRKSEVERPASIPLSSGYSTASSDSTPRASTVNYCGLNEISEETTIQKMERMKKMFEETAELLKCPNHYL [CEP44]	-0.26	0.259	48.6	49.3
MGDEDDDESCAVELRITEANLTGHEEKVSVENFELLKVLGTGAYGKVFLVRKAGGHDAGKLYAMKVLRKAALVQRAKTQEHTRTERSVLELVRQAPFLVTLHYAFQTDAKLHLILDYVSGGEMFTHLYQRQYFKEAEVRVYGGEIVLALEHLHKLGIIYRDLKLENVLLDSEGHIVLTDFGLSKEFLTEEKERTFSFCGTIEYMAPEIIRSKTGHGKAVDWWSLGILLFELLTGASPFTLEGERNTQAEVSRRILKCSPPFPPRIGPVAQDLLQRLLCKDPKKRLGAGPQGAQEVRNHPFFQGLDWVALAARKIPAPFRPQIRSELDVGNFAEEFTRLEPVYSPPGSPPPGDPRIFQGYSFVAPSILFDHNNAVMTDGLEAPGAGDRPGRAAVARSAMMQDSPFFQQYELDLREPALGQGSFSVCRRCRQRQSGQEFAVKILSRRLEANTQREVAALRLCQSHPNVVNLHEVHHDQLHTYLVLELLRGGELLEHIRKKRHFSESEASQILRSLVSAVSFMHEEAGVVHRDLKPENILYADDTPGAPVKIIDFGFARLRPQSPGVPMQTPCFTLQYAAPELLAQQGYDESCDLWSLGVILYMMLSGQVPFQGASGQGGQSQAAEIMCKIREGRFSLDGEAWQGVSEEAKELVRGLLTVDPAKRLKLEGLRGSSWLQDGSARSSPPLRTPDVLESSGPAVRSGLNATFMAFNRGKREGFFLKSVENAPLAKRRKQKLRSATASRRGSPAPANPGRAPVASKGAPRRANGPLPPS [RPS6KA4]	-0.0849	-0.0622	46.6	49.5
MTTSQKHRDFVAEPMGEKPVGSLAGIGEVLGKKLEERGFDKAYVVLGQFLVLKKDEDLFREWLKDTCGANAKQSRDCFGCLREWCDAFL [BANF1]	1.93	-1.48	–	52.2
MDVSGQETDWRSTAFRQKLVSQIEDAMRKAGVAHSKSSKDMESHVFLKAKTRDEYLSLVARLIIHFRDIHNKKSQASVSDPMNALQSLTGGPAAGAAGIGMPPRGPGQSLGGMGSLGAMGQPMSLSGQPPPGTSGMAPHSMAVVSTATPQTQLQLQQVALQQQQQQQQFQQQQQAALQQQQQQQQQQQFQAQQSAMQQQFQAVVQQQQQLQQQQQQQQHLIKLHHQNQQQIQQQQQQLQRIAQLQLQQQQQQQQQQQQQQQQALQAQPPIQQPPMQQPQPPPSQALPQQLQQMHHTQHHQPPPQPQQPPVAQNQPSQLPPQSQTQPLVSQAQALPGQMLYTQPPLKFVRAPMVVQQPPVQPQVQQQQTAVQTAQAAQMVAPGVQMITEALAQGGMHIRARFPPTTAVSAIPSSSIPLGRQPMAQVSQSSLPMLSSPSPGQQVQTPQSMPPPPQPSPQPGQPSSQPNSNVSSGPAPSPSSFLPSPSPQPSQSPVTARTPQNFSVPSPGPLNTPVNPSSVMSPAGSSQAEEQQYLDKLKQLSKYIEPLRRMINKIDKNEDRKKDLSKMKSLLDILTDPSKRCPLKTLQKCEIALEKLKNDMAVPTPPPPPVPPTKQQYLCQPLLDAVLANIRSPVFNHSLYRTFVPAMTAIHGPPITAPVVCTRKRRLEDDERQSIPSVLQGEVARLDPKFLVNLDPSHCSNNGTVHLICKLDDKDLPSVPPLELSVPADYPAQSPLWIDRQWQYDANPFLQSVHRCMTSRLLQLPDKHSVTALLNTWAQSVHQACLSAA [MED15]	0.147	0.144	–	51.3
MTGKKSSREKRRKRSSQEAAAALAAPDIVPALASGSSGSTSGCGSAGGCGSVSCCGNANFSGSVTGGGSGGSCWGGSSVERSERRKRRSTDSSSVSGSLQQETKYILPTLEKELFLAEHSDLEEGGLDLTVSLKPVSFYISDKKEMLQQCFCIIGEKKLQKMLPDVLKNCSIEEIKKLCQEQLELLSEKKILKILEGDNGMDSDMEEEADDGSKMGSDLVSQQDICIDSASSVRENKQPEGLELKQGKGEDSDVLSINADAYDSDIEGPCNEEAAAPEAPENTVQSEAGQIDDLEKDIEKSVNEILGLAESSPNEPKAATLAVPPPEDVQPSAQQLELLELEMRARAIKALMKAGDIKKPA [CAAP1]	0.56	-0.326	47.3	51.8
MEAVATATAAKEPDKGCIEPGPGHWGELSRTPVPSKPQDKVEAAEATPVALDSDTSGAENAAVSAMLHAVAASRLPVCSQQQGEPDLTEHEKVAILAQLYHEKPLVFLERFRTGLREEHLACFGHVRGDHRADFYCAEVARQGTARPRTLRTRLRNRRYAALRELIQGGEYFSDEQMRFRAPLLYEQYIGQYLTQEELSARTPTHQPPKPGSPGRPACPLSNLLLQSYEERELQQRLLQQQEEEEACLEEEEEEEDSDEEDQRSGKDSEAWVPDSEERLILREEFTSRMHQRFLDGKDGDFDYSTVDDNPDFDNLDIVARDEEERYFDEEEPEDAPSPELDGD [CCDC97]	0.36	0.105	49.6	50.8
MTKIKADPDGPEAQAEACSGERTYQELLVNQNPIAQPLASRRLTRKLYKCIKKAVKQKQIRRGVKEVQKFVNKGEKGIMVLAGDTLPIEVYCHLPVMCEDRNLPYVYIPSKTDLGAAAGSKRPTCVIMVKPHEEYQEAYDECLEEVQSLPLPL [NHP2]	1.21	-1.1	55.3	54.1
PYM1	0.791	0.42	57.1	53.9
MSEAMDQPAGGPGNPRPGEGDDGSMEPGTCQELLHRLRELEAENSALAQANENQRETYERCLDEVANHVVQALLNQKDLREECIKLKKRVFDLERQNQMLSALFQQKLQLTTGSLPQIPLTPLQPPSEPPASPSLSSTEGPAAPLPLGHCAGQREVCWEQQLRPGGPGPPAAPPPALDALSPFLRKKAQILEVLRALEETDPLLLCSPATPWRPPGQGPGSPEPINGELCGPPQPEPSPWAPCLLLGPGNLGGLLHWERLLGGLGGEEDTGRPWGPSRGPPQAQGTSSGPNCAPGSSSSSSSDEAGDPNEAPSPDTLLGALARRQLNLGQLLEDTESYLQAFLAGAAGPLNGDHPGPGQSSSPDQAPPQLSKSKGLPKSAWGGGTPEAHRPGFGATSEGQGPLPFLSMFMGAGDAPLGSRPGHPHSSSQVKSKLQIGPPSPGEAQGPLLPSPARGLKFLKLPPTSEKSPSPGGPQLSPQLPRNSRIPCRNSGSDGSPSPLLARRGLGGGELSPEGAQGLPTSPSPCYTTPDSTQLRPPQSALSTTLSPGPVVSPCYENILDLSRSTFRGPSPEPPPSPLQVPTYPQLTLEVPQAPEVLRSPGVPPSPCLPESYPYGSPQEKSLDKAGSESPHPGRRTPGNSSKKPSQGSGRRPGDPGSTPLRDRLAALGKLKTGPEGALGSEKNGVPARPGTEKTRGPGKSGESAGDMVPSIHRPLEQLEAKGGIRGAVALGTNSLKQQEPGLMGDPGARVYSSHSMGARVDLEPVSPRSCLTKVELAKSRLAGALCPQVPRTPAKVPTSAPSLGKPNKSPHSSPTKLPSKSPTKVVPRPGAPLVTKESPKPDKGKGPPWADCGSTTAQSTPLVPGPTDPSQGPEGLAPHSAIEEKVMKGIEENVLRLQGQERAPGAEVKHRNTSSIASWFGLKKSKLPALNRRTEATKNKEGAGGGSPLRREVKMEARKLEAESLNISKLMAKAEDLRRALEEEKAYLSSRARPRPGGPAPGPNTGLGQVQGQLAGMYQGADTFMQQLLNRVDGKELPSKSWREPKPEYGDFQPVSSDPKSPWPACGPRNGLVGPLQGCGKPPGKPSSEPGRREEMPSEDSLAEPVPTSHFTACGSLTRTLDSGIGTFPPPDHGSSGTPSKNLPKTKPPRLDPPPGVPPARPPPLTKVPRRAHTLEREVPGIEELLVSGRHPSMPAFPALLPAAPGHRGHETCPDDPCEDPGPTPPVQLAKNWTFPNTRAAGSSSDPLMCPPRQLEGLPRTPMALPVDRKRSQEPSRPSPTPQGPPFGGSRTPSTSDMAEEGRVASGGPPGLETSESLSDSLYDSLSSCGSQG [NCKAP5L]	-0.128	0.0838	–	50.4
